Data published in publication PMC4176176, “The CRISPR-associated Cas4 protein Pcal_0546 from Pyrobaculum calidifontis contains a [2Fe-2S] cluster: crystal structure and nuclease activity” (Nucleic Acids Research, 2014).

Biological target: the molecule itself
Experiment: SEC; size-exclusion chromatography of the purified protein on a Superdex S200 10/300 GL column

B1: Cas4 protein SSO1391 from Sulfolobus solfataricus (enzyme, UniProt Q97YD4 1-291, looked up)
chain: MFFTHSDMLLLSKRIKKLPKNVDEELRGWNWSEPPVYTRSLSQVSISEMVYCSTLRNVYLKVKGFRGEIGRQILQGSLIHTIYAIGIEAIKRFIYSRESIDGSTLRTLMGDEFYSLLKDLREEEGIYAKVLWDHITNIYSAELDRVRSKFTNLTRDSLVSQVVPFYVEFPVDGSLLGLTNLRVDAFIPHLPLIAEMKTGKYRYTHELSLAGYALAIESQYEIPIDFGYLCYVTVTEKEVKNNCKLIPISDSLRSEFLDMRDKAQDIMDKGVDPGIAKDCESDCMFYKVCHP
notes: Cas4 protein SSO1391 (DUF911 family), Sulfolobus solfataricus; predicted molecular mass 35.9 kDa
- stoichiometry N: 2
